Tests used:
[1] = biological target: human ICAM-1 on cells (HEp-2, NHBE, A549, U937) (human) (UniProt P05362); experiment: cell-based or functional assay
[2] = biological target: T1, human ICAM-1 fused to the VP16 activation domain (pVP16 vector) (herpes simplex virus; human, UniProt P05362 28-532); experiment: mammalian two-hybrid assay in NIH3T3 cells, CAT reporter (CAT activity similar to the basal level)
T1 construct: Order of the parts follows the usual pVP16 layout; also called ICAM-1 (two-hybrid construct)
T1 sequence (P05362 28-532 limits assumed): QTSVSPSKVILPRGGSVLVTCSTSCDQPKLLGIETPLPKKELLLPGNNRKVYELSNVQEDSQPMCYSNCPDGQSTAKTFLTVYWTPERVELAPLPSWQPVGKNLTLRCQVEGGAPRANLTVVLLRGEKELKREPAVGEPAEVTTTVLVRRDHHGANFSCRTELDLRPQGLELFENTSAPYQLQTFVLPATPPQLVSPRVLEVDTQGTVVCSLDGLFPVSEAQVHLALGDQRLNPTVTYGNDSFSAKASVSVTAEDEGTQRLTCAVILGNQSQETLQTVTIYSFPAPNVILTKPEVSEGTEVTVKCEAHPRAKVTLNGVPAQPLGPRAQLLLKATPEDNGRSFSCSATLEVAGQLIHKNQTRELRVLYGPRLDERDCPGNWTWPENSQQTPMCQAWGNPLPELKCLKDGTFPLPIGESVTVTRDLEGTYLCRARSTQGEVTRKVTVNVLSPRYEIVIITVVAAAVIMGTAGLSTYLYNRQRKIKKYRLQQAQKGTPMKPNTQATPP

human ICAM-1 on cells (HEp-2, NHBE, A549, U937) (human), sequence (P05362 28-532): as the sequence (P05362 28-532 limits assumed) above

How did the inhibition of RSV N gene mRNA in HEp-2 cells (RT-PCR) at 400 µg of mAb/ml [1] turn out when “mouse anti-human ICAM-1 mAb (BBA 4) (R & D Systems) (antibody)” was run?
Its inhibition of RSV N gene mRNA in HEp-2 cells (RT-PCR) at 400 µg of mAb/ml is 70%.

What about the inhibition of RSV infection of HEp-2 cells (immunofluorescence, percent infected cells) at 400 µg/ml [1] of the same molecule?
Its inhibition of RSV infection of HEp-2 cells (immunofluorescence, percent infected cells) at 400 µg/ml is 96%.

What about the reduction in RSV infection of A549 cells at 400 µg of mAb/ml [1] of the same molecule?
Its reduction in RSV infection of A549 cells at 400 µg of mAb/ml is 67%.

What about the reduction in RSV infection of NHBE cells at 400 µg of mAb/ml [1] of the same molecule?
Its reduction in RSV infection of NHBE cells at 400 µg of mAb/ml is 54%.

B1: RSV-G fused to the GAL4 DNA-binding domain (pM vector) (other)
chain: MKLLSSIEQACDICRLKKLKCSKEKPKCAKCLKNNWECRYSPKTKRSPLTRAHLTEVESRLERLEQLFLLIFPREDLDMILKMDSLQDIKALLTGLFVQDNVNKDAVTDRLASVETDMPLTLRQHRISATSSSEESSNKGQRQLTVSMSKNKDQRTAKTLERTWDTLNHLLFISSCLYKLNLKSVAQITLSILAMIISTSLIIAAIIFIASANHKVTPTTAIIQDATSQIKNTTPTYLTQNPQLGISPSNPSEITSQITTILASTTPGVKSTLQSTTVKTKNTTTTQTQPSKPTTKQRQNKPPSKPNNDFHFEVFNFVPCSICSNNPTCWAICKRIPNKKPGKKTTTKPTKKPTLKTTKKDPKPQTTKSKEVPTTKPTEEPTINTTKTNIITTLLTSNTTGNPELTSQMETFHSTSSEGNPSPSQVSTTSEYPSQPSSPPNTPRQ
notes: also called cDNA construct expressing G; RSV-G gene product
Does B1 bind [2]?
Result: no binding

From US6900299 (UNIVERSITY OF SOUTH FLORIDA, dated 2005)
